Consider two molecules from publication PMC13247719.

Residue numbers refer to the chain shown, from its start. Where two headings read alike, the source gives them in different places.

What all share (assay): SPR
A general note: Surface plasmon resonance follows binding to a sensor surface in real time, without labels.

One data set deals with T1, LIN28A Y140A (mouse, UniProt Q8K3Y3 1-209, Y140A).
T1 sequence: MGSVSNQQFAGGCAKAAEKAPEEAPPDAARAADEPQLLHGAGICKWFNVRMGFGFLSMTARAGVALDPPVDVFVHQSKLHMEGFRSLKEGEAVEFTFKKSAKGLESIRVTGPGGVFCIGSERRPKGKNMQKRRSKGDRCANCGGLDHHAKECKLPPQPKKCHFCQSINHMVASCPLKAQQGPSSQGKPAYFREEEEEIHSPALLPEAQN

A further data set addresses T2, LIN28A H148A (mouse, UniProt Q8K3Y3 1-209, H148A).
T2 sequence: T1 sequence with A140Y, H148A

Data set [1] deals with T3, LIN28A (mouse, UniProt Q8K3Y3 1-209).
T3 sequence: T1 sequence with A140Y

The next data set has as its target T4, LIN28A H162A (mouse, UniProt Q8K3Y3 1-209, H162A).
T4 sequence: T1 sequence with A140Y, H162A

A further data set has as its target T5, LIN28A I167A (mouse, UniProt Q8K3Y3 1-209, I167A).
T5 sequence: T1 sequence with A140Y, I167A

In a further data set the target is T6, LIN28A CSD (mouse, UniProt Q8K3Y3 16-136).
T6 sequence: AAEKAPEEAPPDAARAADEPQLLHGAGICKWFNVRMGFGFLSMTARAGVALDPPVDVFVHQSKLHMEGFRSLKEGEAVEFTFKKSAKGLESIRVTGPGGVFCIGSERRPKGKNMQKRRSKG

The target in data set [2] is T3, LIN28A. The source holds these as a separate data set.

B1: preE-let-7f-1 biotin (structured_RNA)
RNA: GGGGUAGUGAUUUUACCCUGUUUAGGAGAU
B1: the Kd came to 410 nM with LIN28A Y140A; 276 nM with LIN28A H148A; 92 nM with LIN28A [1]; 382 nM with LIN28A H162A; 99.5 nM with LIN28A I167A; 808 nM with LIN28A CSD.

B2: preE-let-7f-1 UGAG (structured_RNA)
RNA: B1 RNA with G25U
As for B2, the Kd in the data set with LIN28A [2] turned out to be 387 nM.

By Kd is commonly meant the equilibrium constant for the complex coming apart.
